The assay concerns the target BLM helicase, mutated in Bloom's syndrome (human (endogenous in U2OS), UniProt P54132 1-1417). Briefly: cell-based or functional assay.

Chain of BLM helicase, mutated in Bloom's syndrome (P54132 whole entry, change not shown): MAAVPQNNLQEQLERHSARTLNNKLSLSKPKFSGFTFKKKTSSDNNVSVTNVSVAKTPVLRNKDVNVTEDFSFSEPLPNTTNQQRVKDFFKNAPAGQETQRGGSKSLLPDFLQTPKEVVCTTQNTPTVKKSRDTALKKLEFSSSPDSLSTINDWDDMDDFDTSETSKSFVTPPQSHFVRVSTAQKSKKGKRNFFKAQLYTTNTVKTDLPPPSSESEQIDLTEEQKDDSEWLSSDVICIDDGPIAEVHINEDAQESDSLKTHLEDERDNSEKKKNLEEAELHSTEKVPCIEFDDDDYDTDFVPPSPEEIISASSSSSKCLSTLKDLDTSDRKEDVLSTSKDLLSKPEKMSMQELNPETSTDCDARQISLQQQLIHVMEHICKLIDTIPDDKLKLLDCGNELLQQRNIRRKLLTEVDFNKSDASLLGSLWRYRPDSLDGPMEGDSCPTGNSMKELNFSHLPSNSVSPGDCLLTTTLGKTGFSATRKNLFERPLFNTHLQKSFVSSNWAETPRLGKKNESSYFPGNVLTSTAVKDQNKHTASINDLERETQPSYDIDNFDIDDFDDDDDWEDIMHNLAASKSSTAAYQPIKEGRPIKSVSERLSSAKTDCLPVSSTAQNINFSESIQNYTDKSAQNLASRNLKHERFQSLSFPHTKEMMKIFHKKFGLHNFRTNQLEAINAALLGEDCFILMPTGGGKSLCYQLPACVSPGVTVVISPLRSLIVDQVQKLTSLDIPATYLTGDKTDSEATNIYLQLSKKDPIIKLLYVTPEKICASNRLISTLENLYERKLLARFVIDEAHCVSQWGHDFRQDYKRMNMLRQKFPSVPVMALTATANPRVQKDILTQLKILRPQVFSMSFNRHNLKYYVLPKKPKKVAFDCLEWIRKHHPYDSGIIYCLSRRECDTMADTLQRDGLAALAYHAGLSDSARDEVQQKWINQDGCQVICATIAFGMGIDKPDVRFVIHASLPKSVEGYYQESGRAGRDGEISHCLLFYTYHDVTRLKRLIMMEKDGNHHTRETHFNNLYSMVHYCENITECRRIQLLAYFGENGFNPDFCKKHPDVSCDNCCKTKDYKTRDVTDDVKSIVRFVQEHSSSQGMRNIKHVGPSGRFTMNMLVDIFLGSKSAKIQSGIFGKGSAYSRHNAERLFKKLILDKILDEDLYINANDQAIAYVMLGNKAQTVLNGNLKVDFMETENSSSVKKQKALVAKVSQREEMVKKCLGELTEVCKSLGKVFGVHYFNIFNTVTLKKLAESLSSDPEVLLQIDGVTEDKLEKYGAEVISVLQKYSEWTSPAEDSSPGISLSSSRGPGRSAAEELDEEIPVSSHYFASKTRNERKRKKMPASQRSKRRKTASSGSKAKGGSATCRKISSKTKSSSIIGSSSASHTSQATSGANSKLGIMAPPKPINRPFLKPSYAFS

B1: BRCA1 tumor suppressor (natural protein, human (endogenous in U2OS), UniProt P38398 1-1863, looked up)
chain: MDLSALRVEEVQNVINAMQKILECPICLELIKEPVSTKCDHIFCKFCMLKLLNQKKGPSQCPLCKNDITKRSLQESTRFSQLVEELLKIICAFQLDTGLEYANSYNFAKKENNSPEHLKDEVSIIQSMGYRNRAKRLLQSEPENPSLQETSLSVQLSNLGTVRTLRTKQRIQPQKTSVYIELGSDSSEDTVNKATYCSVGDQELLQITPQGTRDEISLDSAKKAACEFSETDVTNTEHHQPSNNDLNTTEKRAAERHPEKYQGSSVSNLHVEPCGTNTHASSLQHENSSLLLTKDRMNVEKAEFCNKSKQPGLARSQHNRWAGSKETCNDRRTPSTEKKVDLNADPLCERKEWNKQKLPCSENPRDTEDVPWITLNSSIQKVNEWFSRSDELLGSDDSHDGESESNAKVADVLDVLNEVDEYSGSSEKIDLLASDPHEALICKSERVHSKSVESNIEDKIFGKTYRKKASLPNLSHVTENLIIGAFVTEPQIIQERPLTNKLKRKRRPTSGLHPEDFIKKADLAVQKTPEMINQGTNQTEQNGQVMNITNSGHENKTKGDSIQNEKNPNPIESLEKESAFKTKAEPISSSISNMELELNIHNSKAPKKNRLRRKSSTRHIHALELVVSRNLSPPNCTELQIDSCSSSEEIKKKKYNQMPVRHSRNLQLMEGKEPATGAKKSNKPNEQTSKRHDSDTFPELKLTNAPGSFTKCSNTSELKEFVNPSLPREEKEEKLETVKVSNNAEDPKDLMLSGERVLQTERSVESSSISLVPGTDYGTQESISLLEVSTLGKAKTEPNKCVSQCAAFENPKGLIHGCSKDNRNDTEGFKYPLGHEVNHSRETSIEMEESELDAQYLQNTFKVSKRQSFAPFSNPGNAEEECATFSAHSGSLKKQSPKVTFECEQKEENQGKNESNIKPVQTVNITAGFPVVGQKDKPVDNAKCSIKGGSRFCLSSQFRGNETGLITPNKHGLLQNPYRIPPLFPIKSFVKTKCKKNLLEENFEEHSMSPEREMGNENIPSTVSTISRNNIRENVFKEASSSNINEVGSSTNEVGSSINEIGSSDENIQAELGRNRGPKLNAMLRLGVLQPEVYKQSLPGSNCKHPEIKKQEYEEVVQTVNTDFSPYLISDNLEQPMGSSHASQVCSETPDDLLDDGEIKEDTSFAENDIKESSAVFSKSVQKGELSRSPSPFTHTHLAQGYRRGAKKLESSEENLSSEDEELPCFQHLLFGKVNNIPSQSTRHSTVATECLSKNTEENLLSLKNSLNDCSNQVILAKASQEHHLSEETKCSASLFSSQCSELEDLTANTNTQDPFLIGSSKQMRHQSESQGVGLSDKELVSDDEERGTGLEENNQEEQSMDSNLGEAASGCESETSVSEDCSGLSSQSDILTTQQRDTMQHNLIKLQQEMAELEAVLEQHGSQPSNSYPSIISDSSALEDLRNPEQSTSEKAVLTSQKSSEYPISQNPEGLSADKFEVSADSSTSKNKEPGVERSSPSKCPSLDDRWYMHSCSGSLQNRNYPSQEELIKVVDVEEQQLEESGPHDLTETSYLPRQDLEGTPYLESGISLFSDDPESDPSEDRAPESARVGNIPSSTSALKVPQLKVAESAQSPAAAHTTDTAGYNAMEESVSREKPELTASTERVNKRMSMVVSGLTPEEFMLVYKFARKHHITLTNLITEETTHVVMKTDAEFVCERTLKYFLGIAGGKWVVSYFWVTQSIKERKMLNEHDFEVRGDVVNGRNHQGPKRARESQDRKIFRGLEICCYGPFTNMPTDQLEWMVQLCGASVVKELSSFTLGTGVHPIVVVQPDAWTEDNGFHAIGQMCEAPVVTREWVLDSVALYQCQELDTYLIPQIPHSHY
For the molecule B1, the “fold stimulation of BLM helicase activity by 3 nM full-length BRCA1 on a non-telomeric fork substrate” value is approximately 1.9 fold; the “fold stimulation of BLM helicase activity by 3 nM full-length BRCA1 on the fork substrate with two telomeric repeats” value is approximately 3.6 fold; the “initial unwinding rate of BLM (1.2 nM) on the telomeric fork in the presence of 3 nM BRCA1, fold increase” value came to 1.7 fold.
